Earlier results, collected in patent EP0632082B1, “Preparation of activated carbamates of poly(alkylene glycol) and their use” ("HEYLECINA", Société Anonyme, priority 1993, dated 1995).

Conditions: modification with SC-mPEG

In the case of “papaya proteinase III: papaya proteinase III modified with SC-mPEG”, the “increase of specific activity” value is given as 250%.
